Where no end group is shown, it is not given here.
B1: Phage-2678 (peptide)
peptide: NVIRCEPMWMCYPS
modifications: cysteine pairing not given here; also: displayed on bacteriophage as fusion to pIII
B2: Phage-2861 (peptide)
peptide: WDRLCIPAWMCSGF
modifications: cysteine pairing not given here; also: fused to pIII of display bacteriophage, linker and sequence not given here
notes: Clonal phage of the Peptide-180 library; not shown: pIII filament protein of the display bacteriophage
B3: Phage-2863 (peptide)
peptide: FNVMCRPAWMCDFL
modifications: cysteine pairing not given here; also: fused to pIII of display bacteriophage, linker and sequence not given here
notes: as for B2
B4: Phage-2854 (peptide)
peptide: VHIMCKPAWMCLGF
modifications: cysteine pairing not given here; also: fused to pIII of display bacteriophage, linker and sequence not given here
notes: Clonal phage of the Peptide-180 library; the cell for position 10 (c11) is missing in the printed row; not shown: pIII filament protein of the display bacteriophage
B5: Phage-2859 (peptide)
peptide: WEFVCKPEWMCTGF
modifications: cysteine pairing not given here; also: fused to phage pIII, linker not given here
notes: as for B2
B6: Phage-2851 (peptide)
peptide: DMRLCVPEWMCLGL
modifications: cysteine pairing not given here; also: displayed on phage as fusion to pIII, linker and sequence not given here
notes: as for B2
B7: Phage-2856 (peptide)
peptide: VQRMCEPSWMCFGF
modifications: cysteine pairing not given here; also: fused to pIII of display bacteriophage, linker and sequence not given here
notes: as for B2
B8: Phage-2858 (peptide)
peptide: TQAMCKPAWMCQGF
modifications: cysteine pairing not given here; also: fused to pIII of display bacteriophage, linker and sequence not given here
notes: as for B2
B9: Phage-2857 (peptide)
peptide: LERACVPSWMCTGF
modifications: cysteine pairing not given here; also: fused to pIII of display bacteriophage, linker and sequence not given here
notes: as for B2
B10: Phage-2855 (peptide)
peptide: WEMKCIPEWMCRGF
modifications: cysteine pairing not given here; also: fused to pIII of display bacteriophage, linker and sequence not given here
notes: as for B2
B11: Phage-2860 (peptide)
peptide: EWILCKPAWMCDGL
modifications: cysteine pairing not given here; also: fused to pIII of display bacteriophage, linker and sequence not given here
notes: as for B2
B12: Phage-2850 (peptide)
peptide: VNIRCEPAWMCMGF
modifications: cysteine pairing not given here; also: fused to phage pIII, linker not given here
notes: as for B2
B13: Phage-2852 (peptide)
peptide: VMPLCKPAWMCGGF
modifications: cysteine pairing not given here; also: fused to pIII of display bacteriophage, linker and sequence not given here
notes: as for B2
B14: Phage-2853 (peptide)
peptide: MLPLCVPAWMCSGF
modifications: cysteine pairing not given here; also: fused to pIII of display bacteriophage, linker and sequence not given here
notes: as for B2
B15: Phage-2862 (peptide)
peptide: TGAYCVPQWMCSGF
modifications: cysteine pairing not given here; also: fused to phage pIII, linker not given here
notes: as for B2
B16: Phage-2881 (peptide)
peptide: GDPVCKPTWMCLGF
notes: tested as crude clonal phage supernatant
B17: Phage-2878 (peptide)
peptide: ESARCVPMWMCNGF
notes: as for B16
B18: Phage-2880 (peptide)
peptide: MHLMCKPAWMCAGF
notes: as for B16
B19: Phage-2879 (peptide)
peptide: VTVICKPQWMCVGF
notes: as for B16

The binders below were run against T1, PSMA Fab (biotinylated (site not stated)) (assay: clonal phage ELISA; biotinylated PSMA Fab on neutravidin plate, blocking buffer alone, anti-M13-HRP detection;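 also: crude clonal phage supernatants added without washing to wells preincubated with PSMA antigen or with blocking buffer alone, briefly incubated, then washed before bound phage detection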).
T1 construct: also called Anti-PSMA Fab; 006 PSMA Fab
With B1 the “Phage binding ELISA signal, Anti-PSMA Fab” value was 0.874.
For AGHWCIPMWMCQED [Phage-2679], the “Phage binding ELISA signal, Anti-PSMA Fab” value was 0.874.

These binders were tested against T2, PSMA Fab (assay: clonal phage ELISA on biotinylated PSMA Fab captured on neutravidin plates, anti-M13 HRP detection;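 also: crude clonal phage supernatants tested, before phage were added, wells were pretreated with PSMA antigen in blocking buffer or with blocking buffer only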).
T2 construct: Biotinylated and captured on neutravidin coated plates in the phage ELISA; also called Anti-PSMA Fab; 006 PSMA Fab
Experimental: (§1) Clonal phage were harvested as crude supernatants and screened via standard ELISAs. […] Prior to the addition of clonal phage. wells were incubated with blocking buffer and PSMA antigen or blocking buffer alone. Without washing or aspirating, clonal phage supernatants were then added to the wells and incubated for a short time. Wells were then washed followed by detection of bound phage using a horse radish conjugated anti-M13 antibody.
In the case of SMPRCVPVWMCEGF [Phage-2875], the “Phage binding ELISA signal, Anti-PSMA Fab” value is reported as 2.39.
For VLPMCSPPWMCIGL [Phage-2867], the “Phage binding ELISA signal, Anti-PSMA Fab” value was 2.4.
For TSPACVPSWMCVGF [Phage-2866], the “Phage binding ELISA signal, Anti-PSMA Fab” value was 2.4.
MSPLCKPVWMCAGF (cysteine pairing not given here; also: displayed on phage by fusion to pIII) [Phage-2865] was tested, and the “Phage binding ELISA signal, Anti-PSMA Fab” value was 2.4.
IDILCRPLWMCNGM [Phage-2872] was tested, and the “Phage binding ELISA signal, Anti-PSMA Fab” value was 2.39.
For IIRHCVPMWMCQGF [Phage-2873], the “Phage binding ELISA signal, Anti-PSMA Fab” value was 2.39.
With TLSMCVPTWMCTGF [Phage-2877] the “Phage binding ELISA signal, Anti-PSMA Fab” value was 2.38.
With ETLRCEPMWMCMGF [Phage-2874] the “Phage binding ELISA signal, Anti-PSMA Fab” value was 2.39.
With WPQLCVPMWMCAGL [Phage-2869] the “Phage binding ELISA signal, Anti-PSMA Fab” value was 2.4.
With SEFWCVPAWMCEGF [Phage-2870] the “Phage binding ELISA signal, Anti-PSMA Fab” value was 2.4.
For LERVCKPLWMCTGL [Phage-2871], the “Phage binding ELISA signal, Anti-PSMA Fab” value was 2.39.
In the case of EPIRCVPQWMCVGF [Phage-2868], the “Phage binding ELISA signal, Anti-PSMA Fab” value is reported as 2.4.
For DDIRCKPAWMCMGF [Phage-2876], the “Phage binding ELISA signal, Anti-PSMA Fab” value was 2.38.
For IETWCVPRWMCEGF [Phage-2864], the “Phage binding ELISA signal, Anti-PSMA Fab” value was 2.42.

These binders were tested against T3, PSMA Fab (assay: clonal phage ELISA on captured PSMA Fab; wells pre-incubated with PSMA antigen as competitor).
T3 construct: also called Anti-PSMA Fab; 006 PSMA Fab
Experimental: as §1
For B2, the “Phage binding ELISA signal (Anti-PSMA Fab, with competitor)” value was 0.197.
With B3 the “Phage binding ELISA signal (Anti-PSMA Fab, with competitor)” value was 0.158.
B4 was tested, and the “Phage binding ELISA signal (Anti-PSMA Fab, with competitor)” value was 0.246.
B5 was tested, and the “Phage binding ELISA signal (Anti-PSMA Fab, with competitor)” value was 0.102.
In the case of B6, the “Phage binding ELISA signal (Anti-PSMA Fab, with competitor)” value is reported as 0.0789.
B7 was tested, and the “Phage binding ELISA signal (Anti-PSMA Fab, with competitor)” value was 0.0783.
B8 was tested, and the “Phage binding ELISA signal (Anti-PSMA Fab, with competitor)” value was 0.0783.
B9 was tested, and the “Phage binding ELISA signal (Anti-PSMA Fab, with competitor)” value was 0.0938.
With B10 the “Phage binding ELISA signal (Anti-PSMA Fab, with competitor)” value was 0.139.
With B11 the “Phage binding ELISA signal (Anti-PSMA Fab, with competitor)” value was 0.0639.
In the case of B12, the “Phage binding ELISA signal (Anti-PSMA Fab, with competitor)” value is reported as 0.108.
With B13 the “Phage binding ELISA signal (Anti-PSMA Fab, with competitor)” value was 0.134.
In the case of B14, the “Phage binding ELISA signal (Anti-PSMA Fab, with competitor)” value is reported as 0.12.
With B15 the “Phage binding ELISA signal (Anti-PSMA Fab, with competitor)” value was 0.112.

These binders were tested against T2, PSMA Fab (assay: clonal phage ELISA on captured PSMA Fab pre-incubated with PSMA antigen as competitor, anti-M13 HRP detection;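 also: crude clonal phage supernatants tested by ELISA, wells first treated with blocking buffer plus PSMA antigen, bound phage read out via HRP-linked anti-M13 antibody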).
Experimental: as §1
In the case of SMPRCVPVWMCEGF [Phage-2875], the “Phage binding ELISA signal, Anti-PSMA Fab with PSMA antigen” value is reported as 0.107.
With VLPMCSPPWMCIGL [Phage-2867] the “Phage binding ELISA signal, Anti-PSMA Fab with PSMA antigen” value was 0.0912.
In the case of TSPACVPSWMCVGF [Phage-2866], the “Phage binding ELISA signal, Anti-PSMA Fab with PSMA antigen” value is reported as 0.071.
For MSPLCKPVWMCAGF (cysteine pairing not given here; also: displayed on phage by fusion to pIII) [Phage-2865], the “Phage binding ELISA signal, Anti-PSMA Fab with PSMA antigen” value was 0.0828.
With IDILCRPLWMCNGM [Phage-2872] the “Phage binding ELISA signal, Anti-PSMA Fab with PSMA antigen” value was 0.113.
With IIRHCVPMWMCQGF [Phage-2873] the “Phage binding ELISA signal, Anti-PSMA Fab with PSMA antigen” value was 0.224.
With TLSMCVPTWMCTGF [Phage-2877] the “Phage binding ELISA signal, Anti-PSMA Fab with PSMA antigen” value was 0.115.
In the case of ETLRCEPMWMCMGF [Phage-2874], the “Phage binding ELISA signal, Anti-PSMA Fab with PSMA antigen” value is reported as 0.0975.
With WPQLCVPMWMCAGL [Phage-2869] the “Phage binding ELISA signal, Anti-PSMA Fab with PSMA antigen” value was 0.148.
In the case of SEFWCVPAWMCEGF [Phage-2870], the “Phage binding ELISA signal, Anti-PSMA Fab with PSMA antigen” value is reported as 0.0842.
With LERVCKPLWMCTGL [Phage-2871] the “Phage binding ELISA signal, Anti-PSMA Fab with PSMA antigen” value was 0.134.
For EPIRCVPQWMCVGF [Phage-2868], the “Phage binding ELISA signal, Anti-PSMA Fab with PSMA antigen” value was 0.0918.
In the case of DDIRCKPAWMCMGF [Phage-2876], the “Phage binding ELISA signal, Anti-PSMA Fab with PSMA antigen” value is reported as 0.127.
With IETWCVPRWMCEGF [Phage-2864] the “Phage binding ELISA signal, Anti-PSMA Fab with PSMA antigen” value was 0.234.

What follows are binders tested against T4, 006 PSMA Fab (assay: phage ELISA; biotinylated PSMA Fab on neutravidin plate, wells pre-incubated with PSMA antigen as competitor, anti-M13-HRP detection).
T4 construct: also called Anti-PSMA Fab
Experimental: as §1
B16 was tested, and the “Phage binding ELISA signal, Anti-PSMA Fab in presence of PSMA antigen” value (from here on “Phage binding ELISA signal … of PSMA antigen”) was 0.09.
For B17, the “Phage binding ELISA signal … of PSMA antigen” value was 0.0714.
With B18 the “Phage binding ELISA signal … of PSMA antigen” value was 0.118.
In the case of B19, the “Phage binding ELISA signal … of PSMA antigen” value is reported as 0.0878.

These binders were tested against T1, PSMA Fab (assay: clonal phage ELISA; biotinylated PSMA Fab on neutravidin plate, wells pre-incubated with PSMA antigen as competitor, anti-M13-HRP detection).
Experimental: as §1
In the case of B1, the “Phage binding ELISA signal, Anti-PSMA Fab” value is reported as 0.0918.
For AGHWCIPMWMCQED [Phage-2679], the “Phage binding ELISA signal, Anti-PSMA Fab” value was 0.0526.

Each binder was assayed against T4, 006 PSMA Fab (assay: phage ELISA; biotinylated PSMA Fab on neutravidin plate, blocking buffer alone, anti-M13-HRP detection).
Experimental: as §1
B16 was tested, and the “Phage binding ELISA signal, Anti-PSMA Fab” value was 2.38.
B17 was tested, and the “Phage binding ELISA signal, Anti-PSMA Fab” value was 2.38.
For B18, the “Phage binding ELISA signal, Anti-PSMA Fab” value was 2.38.
For B19, the “Phage binding ELISA signal, Anti-PSMA Fab” value was 2.38.

The binders below were run against T3, PSMA Fab (assay: clonal phage ELISA; biotinylated PSMA Fab on neutravidin plate, anti-M13 HRP detection).
Experimental: as §1
For B2, the “Phage binding ELISA signal, Anti-PSMA Fab” value was 2.43.
For B3, the “Phage binding ELISA signal, Anti-PSMA Fab” value was 2.42.
In the case of B4, the “Phage binding ELISA signal, Anti-PSMA Fab” value is reported as 2.44.
In the case of B5, the “Phage binding ELISA signal, Anti-PSMA Fab” value is reported as 2.43.
With B6 the “Phage binding ELISA signal, Anti-PSMA Fab” value was 2.46.
For B7, the “Phage binding ELISA signal, Anti-PSMA Fab” value was 2.44.
In the case of B8, the “Phage binding ELISA signal, Anti-PSMA Fab” value is reported as 2.44.
B9 was tested, and the “Phage binding ELISA signal, Anti-PSMA Fab” value was 2.44.
B10 was tested, and the “Phage binding ELISA signal, Anti-PSMA Fab” value was 2.44.
With B11 the “Phage binding ELISA signal, Anti-PSMA Fab” value was 2.43.
For B12, the “Phage binding ELISA signal, Anti-PSMA Fab” value was 2.46.
For B13, the “Phage binding ELISA signal, Anti-PSMA Fab” value was 2.46.
In the case of B14, the “Phage binding ELISA signal, Anti-PSMA Fab” value is reported as 2.44.
With B15 the “Phage binding ELISA signal, Anti-PSMA Fab” value was 2.43.
